Experimental data from the supplement of paper PMC12042874.
± gives the uncertainty stated by the source.

Assay: amyloid nucleation score (Sup35N fusion, yeast selection) (log enrichment); library NNK1; higher = more nucleation; inactive = no reads after selection
In short: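 Psi-negative yeast expressed Sup35N fused to peptides of 20 random codons. They were induced 24 hours with 100 μM copper sulfate, grown 7 days at 30°C without adenine and uracil, and their plasmid inserts from input and output were Illumina-sequenced. The nucleation score is the DiMSum log enrichment of output over input reads, centred on the mode score of non-aggregating sequences. Sequences with under 100 input reads were excluded.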

| Substance | amyloid nucleation score |
| --- | --- |
| ENYKVGACVYLPWPFHENTG | -0.096 ± 0.56 |
| EPAFL | 0.229 ± 0.42 |
| EPIYCFCDCNGSRWALYVSV | 0.421 ± 0.54 |
| EPKVSSEQKVFDSCYT | 0.417 ± 0.61 |
| EPLISCILCKLEGWIPYHI | -0.493 ± 0.56 |
| EQCTLVVSYGVWGHRSSCVG | 0.93 ± 0.45 |
| EQENMCSVRQACIYH | 1.57 ± 0.29 |
| EQHSPHPTIEKIALTCFTRC | -0.189 ± 0.4 |
| ERNSITSILKRNRLSRGFAL | 2.44 ± 0.48 |
| ERSYSNWAMG | 0.958 ± 0.74 |
| ERVSETRQSLTWNHNERIWL | 1.55 ± 0.12 |
| ERYKY | 0.601 ± 0.61 |
| ESGYVLESSVQVENKFIFTT | -2.27 ± 2.4 |
| ESIFFMTDTRSISLCST | -0.04 ± 0.27 |
| ESKEPFLCIQDITVSSFLPF | -1.69 ± 2.4 |
| ESPHYFTLTCV | -0.036 ± 0.74 |
| ESSAIRNGEC | 0.252 ± 0.52 |
| ESSMLAMVGIQSTWCNVSYG | 1.67 ± 0.2 |
| ESSYLMNKCSSAIQDWDWGR | 0.321 ± 0.4 |
| ETITKVVQQLSRLDKLSTYW | 1.53 ± 0.26 |
| ETMGGLE | 0.107 ± 0.9 |
| ETPNAFHVHMSYVYRLRWSR | 2.75 ± 0.17 |
| ETYGCFRYWISSLPVVEVSF | -0.368 ± 0.35 |
| EVEIFILNLLFIFPNQKARW | 4.17 ± 0.12 |
| EVGRSCWLGSL | -0.344 ± 0.68 |
| EVHRFRVKKEGGDQ | 0.869 ± 0.57 |

| Substance | amyloid nucleation score |
| --- | --- |
| EVMVSAGVTIACSPVVIRFR | 1.47 ± 0.54 |
| EVVKSITRKPNLVWRYLTLD | 0.588 ± 0.44 |
| EWGNRRVFYVVMDGSRCPAS | 0.1 ± 0.16 |
| EWSFSYCGGVAFLSIEIEFL | inactive |
| EYDLRSGEG | -0.332 ± 0.46 |
| EYLFLRRM | 2.92 ± 0.089 |
| EYVHLNQVNDAGGVDSGTLS | 0.823 ± 0.28 |
| EYVRRKFQPSCTVMRYCFAR | 0.006 ± 0.77 |
| FAGFTGGVLYGVWRLLGSCR | -0.022 ± 0.59 |
| FAHTLGA | 0.333 ± 0.79 |
| FAKLYLKSISVLLMHTDWVF | 0.684 ± 0.62 |
| FAPMILRPVLSQMAWWKDIA | -0.108 ± 0.52 |
| FAQWDNLSARSLKGDQRESA | 0.302 ± 0.52 |
| FATRTLVYVYFRWCHDDLSH | 0.584 ± 0.56 |
| FAWVDPGFLWDNLTPGTDRC | 0.253 ± 0.43 |
| FCCGSGNSMDMCWFLSIG | 6.93 ± 0.079 |
| FCISLFSHWFALW | 5.72 ± 0.067 |
| FCKWCRFDDCTRGYIYFVRR | 1.76 ± 0.37 |
| FCLNGRYECGSRMECEMVRE | -0.741 ± 0.39 |
| FCNNATSTQGNVFSGLLWTL | -0.202 ± 0.27 |
| FCNRFRCSGSVRWLREVEYM | 0.291 ± 0.46 |
| FCQLVIFY | 2.8 ± 0.18 |
| FCRFQDR | -0.785 ± 0.64 |
| FDGGKVSILFAFISNP | 6.252 ± 0.048 |
| FDGMYNDVRTRNVGARYF | 0.552 ± 0.64 |
| FDHSIVKKSQLRGFTVVLRL | 1.22 ± 0.35 |

| Substance | amyloid nucleation score |
| --- | --- |
| FDITRGRSTSYLIERRRTWG | 0.79 ± 0.82 |
| FDKYLRWFMKTLCNIDNWRW | -0.233 ± 0.24 |
| FDSRENETTCAMSEDMTYVV | -0.238 ± 0.22 |
| FDVFMRYG | inactive |
| FEERFMFYTNIDNLLYPLSA | 0.848 ± 0.42 |
| FELLMDIDC | 0.139 ± 0.83 |
| FENCHHYGTARFKDLPRSIV | -0.208 ± 0.66 |
| FEQTIISLVSGYFQSSDYWS | -0.596 ± 0.78 |
| FERRCYRVSDHVAQVLHDPT | 0.515 ± 0.97 |
| FESKYNTP | 0.41 ± 0.47 |
| FESRRVKNGID | inactive |
| FEYFCRRDRLTK | -0.209 ± 0.25 |
| FEYRRNLKCVSFFWSVGINR | -0.436 ± 0.4 |
| FFAFYDVHPLHLGDTTLGGW | 3.29 ± 0.14 |
| FFALVYW | 0.275 ± 0.29 |
| FFASCIRYDSRNCIGNLQLG | 0.149 ± 0.64 |
| FFIYPWFRMTFERRLDGELG | 1.62 ± 0.27 |
| FFKGGVNGIFINNGSTFG | 4.91 ± 0.067 |
| FFKLKHGNTDRSYIYYVGCA | -0.01 ± 0.21 |
| FFLRESNVGLAQRATMELLD | 0.13 ± 1.2 |
| FFQTLDWV | -1.13 ± 2.4 |
| FFSYVYGVSACFLVTLLFGP | -0.229 ± 0.32 |
| FFTCNGWAGS | -0.614 ± 0.38 |
| FFVFSRAHCAQSSLNKKYL | 0.888 ± 0.3 |
| FFWCRSRLTLAF | 0.024 ± 0.35 |
| FFWRHLESGMGFHKACSHGG | 0.005 ± 1.7 |

| Substance | amyloid nucleation score |
| --- | --- |
| FFYLIISGMVMLSNPLSRVS | inactive |
| FGCNELNR | 0.826 ± 0.5 |
| FGGWVSLRSQKCMRPWRLGG | -1.22 ± 1.4 |
| FGKFKRRRGMSKMNRMEITK | -0.841 ± 1.5 |
| FGLAGHFYNWNYIYTSSVWF | -0.021 ± 0.59 |
| FGMIFFLLTMALRDVCVRLR | 7.24 ± 0.084 |
| FGMKMGMMRVV | -0.688 ± 1.2 |
| FGMSCRVELDSDRARTTPWP | 0.181 ± 0.64 |
| FGNGHSRMHHRTLHTKPRAA | 0.37 ± 1.1 |
| FGSDPISCGVWYMCVRGWYG | 0.108 ± 0.3 |
| FGYNFRPHHCGCTRNLNSQM | 0.115 ± 0.29 |
| FHFWEMFTQEAAPIWRWF | -0.139 ± 0.75 |
| FHMAKRLYC | 0.276 ± 0.46 |
| FHNVFCFSYFT | 7.21 ± 0.078 |
| FHTNMTVSYQTKLVLDRYWN | 3.42 ± 0.14 |
| FIASGPVHLRLYAKFNNFHL | 8.643 ± 0.06 |
| FIATNLSLYGFVYWLLSTTT | 0.414 ± 0.42 |
| FICVMTRSGQDSSGMLLREG | 0.105 ± 0.2 |
| FIELMRGDDLMHRGTLYVLR | inactive |
| FIEQGHYNHTGFGSYGWRF | 0.972 ± 0.29 |
| FIFVIDTRVLRTLINCPTPS | -0.047 ± 0.36 |
| FIGAFRTTHSAGLLTDRMVL | 7.851 ± 0.057 |
| FIGGLHMALYDYPVEGSALA | 0.622 ± 0.76 |
| FIIKYK | 2.26 ± 0.19 |
| FILCMLMVSAGLFEQEALRY | 0.506 ± 0.24 |
| FINNNVEDYFISL | 0.712 ± 0.41 |

| Substance | amyloid nucleation score |
| --- | --- |
| FIRGDANSLLHYLSDCVRE | 1.37 ± 0.9 |
| FIRSVKRGARWSGGNFFIEG | inactive |
| FIRWKLVYYDIMKCPSCSHH | -0.187 ± 0.61 |
| FISAACEEPVTFMGNYGGYG | 0.02 ± 0.53 |
| FISHGRIVHGEDGAVLFVSG | 0.277 ± 1.4 |
| FISNVWPYGESRFEESNPCL | 0.094 ± 0.52 |
| FISSNDIYGGATGWDSSDVT | -0.743 ± 0.36 |
| FIWGLKLVDFSLPVSAL | -0.411 ± 0.51 |
| FKEMIAWPWLESSSGEFTIV | 0.645 ± 0.62 |
| FKESLGFMFMHDMSWDGLLV | 0.224 ± 0.7 |
| FKRFWLR | 0.166 ± 0.73 |
| FKSVGLTWALRGRINKTYLE | 0.195 ± 0.21 |
| FKTYYLATLDTNS | -1.73 ± 2.4 |
| FKVKIVKCLGMFLLTIASLL | 1.07 ± 0.39 |
| FKVPVYGWLWETTVVSADTS | -0.131 ± 0.37 |
| FLFLYNVGVVIRSGYMFLRS | 0.088 ± 0.93 |
| FLFRFQKCLFNCFVLGLVSR | -0.206 ± 0.53 |
| FLGLLLCCLVRAPLPFGMRA | -0.459 ± 0.56 |
| FLHNSWTGGGGTYGICKMRV | -0.368 ± 0.65 |
| FLHVPVLFSFTHCFMG | 3.03 ± 0.13 |
| FLLCVSHLELSY | 0.968 ± 0.49 |
| FLMLRAYESMARFYDVLWIG | 0.088 ± 0.37 |
